Experimental data published in patent US6800481B1, “Stable macroscopic membranes formed by self-assembly of amphiphilic peptides and uses therefor” (priority 1992, dated 2004).
“Also recorded” adds a separate entry of the source.

Columns and labels:
B-DNA = assay: Binding of small peptides to B-DNA and conversion to the Z conformation; type: biochemical
Excerpt: A subportion of this histone-like region from amino acids 306 to 339 (heavily underlined in FIG. 1) is a likely candidate for a DNA-binding domain. […] The KAKAX motif (SEQ ID NO: 31) (where X is variable) occurs twice in the 306-339 region and also occurs in the peptide, EAK16. These observations are consistent with the structural similarity of this region to histone H1.

[1] = type: physicochemical
Description: Circular dichroism (CD) spectra were taken on an Aviv Model 60DS spectropolarimeter using program 60HDS for data processing. Because EAK16 contains both positively and negatively charged residues, the peptide itself can serve as a buffer. CD samples were prepared and measured at 25° C., unless otherwise indicated. All reagents were ultrapure and solutions were filtered through a […] before use. Circular dichroism (CD) spectroscopy was used to monitor the stability of the β-sheet structure of EAK16 under various conditions. Dilute […] concentrations. […] A 3 mM stock EAK16 solution was mixed in water to a concentration of 20 μM, allowed to equilibrate, and the CD spectrum measured. The solution was then diluted five times by two-fold serial dilutions to final concentrations of […], 10, 5.0, 2.5, 1.25 and 0.625 μM, allowed to equilibrate and CD spectra taken. […] Temperature. The CD spectra of 8 μM EAK16 at 25, 37, 55, 70 and 90° C. in water were measured. […] EAK16 has a calculated pI Of 6.71. It was assumed that changes of pH would have a great effect on the β-sheet structure, especially when the charged groups are neutralized. […] The 3 mM stock solution of EAK16 was mixed with pH buffers at pH 1.5, 3, 7, and 11 to a final concentration of 10 μM and allowed to equilibrate for 4 hours before taking CD measurements. […] Chemical denaturants. […] The peptide (3 mM stock) was mixed with water or different concentrations of guanidine-HCl or urea and allowed to incubate overnight before taking CD measurements. SDS was added to a peptide solution to a final concentration of 0.1% and incubated for 30 minutes.

[2] = Testing of peptides for macroscopic membrane formation (phase-contrast microscope, Congo Red staining); type: physicochemical; conditions: for formation of macroscopic membranes: identical conditions, in words; for membranous structure in DMEM: DMEM medium
Excerpt: The effect of length and sequence on membrane formation was examined using several peptides (Table 1 and Example 3). […] Very long peptides, e.g., of about 200 amino acids, may encounter problems due to insolubility and intramolecular interactions which destabilize membrane formation. […] The optimal lengths for membrane formation will probably vary with the amino acid composition.
The EAK12 and EAK16 tested for membrane formation were acetylated and aminylated at both N- and C-terminal ends. […] The peptides were initially dissolved in water (5 mg/ml) or in 23% acetonitrile (10 mg/ml). A volume of 5-10 microliters of the dissolved peptides were applied to the DMEM medium, PBS or water. The formation of the membrane was first observed under a phase-contrast microscope and then, by the naked eye after staining with Congo Red.

[3] = system: poly(dG-m^5dC) in the Z-form; assay: Gel retardation (band shift) and competition assay for Z-DNA binding; conditions: for competition of binding to poly(dG-m^5dC) by non-Z DNA: excess poly(dG-dC), poly(dA-dT), salmon sperm DNA; for affinity for Z-DNA relative to B-DNA: not purified to homogeneity, estimated
Excerpt: Two probes that can be stabilized in the Z-form were used to detect potential Z-DNA binding proteins. One is an ˜600 bp fragment of ^32P-labelled poly(dG-m^5dC) that is stabilized in the Z-DNA form by millimolar concentrations of MgCl2 (Behe and Felsenfeld, 1981); the other is an oligonucleotide, [^32P] (dG-BR^5dC)22, that can be stabilized by millimolar concentrations of MgCl2 or μM concentrations of Co(NH3)6^3+. Yeast whole cell extract, nuclear extracts, and phosphocellulose column fractions of yeast nuclear extracts were assayed by a gel retardation assay using either of these ^32P-labelled DNA fragments as a probe. The gel retardation assay was carried out with the probe in the presence of 10 mM MgCl2 and a 400-fold excess of sheared salmon sperm B-DNA. Under these conditions, the polymer assumes the Z-DNA conformation. A Z-DNA-specific antibody was used for positive control. 1 μl of each fraction of yeast nuclear extract obtained by salt elution from the phosphocellulose column with 0.2-0.5 M potassium phosphate (pH 7.4) was added to the assays.
In order to determine if these band shifts were the result of authentic Z-DNA binding, negatively supercoiled plasmids of pUC19 and pUC19(GC) were used as competitor DNAs in gel retardation competition assays. In these assays, [^32P] (dG-Br^5dC)22 was incubated in the presence of a 2000-fold excess of sheared salmon sperm DNA with additions as follows: 1) no addition; 2) a monoclonal anti-Z-DNA antibody (mAb); 3) mAb plus additional 50 ng of negatively supercoiled plasmid pUC19 (without a Z-DNA insert); 4) mAb plus 25 ng of negatively supercoiled pUC19(CG) (containing a Z-DNA segment); 5) fraction F1 yeast protein; 6) F1 plus additional 50 ng pUC19; and 7) F1 plus pUC19(GC). pUC19(GC) contains a 14 bp (dG-dC)7 insert that can adopt the Z-conformation upon negative supercoiling. pUC19(GC) was assayed for its resistance to BssHII digestion (Vardimon and Rich, 1983; Azorin et al., 1984) to confirm the presence of the Z-DNA prior to the assay.
However, enough material was in solution so that crude cell extracts and partially purified zuotin could be prepared and assayed by the band shift assay. Recombinant zuotin was partially purified by chromatography of crude cell extract from induced pETZU01 transformants through phosphocellulose. ^32P-labelled poly(dG-m5dC) in the Z-form was incubated with the crude cell extract or with partially purified zuotin in the presence of sheared salmon sperm DNA, poly(dG-dC), or poly(dG-Br^5dC). Assays were run on: 1) labelled probe alone; 2) crude cell extract from induced pET8c transformants; 3) crude cell extract from uninduced pETZU01 transformants; 4) crude cell extract from induced pETZU01 transformants; 5) partially purified recombinant zuotin; 6) partially purified yeast zuotin; 7)-10) partially purified recombinant zuotin with 20-, 40-, 100-, and 200-fold excess of salmon sperm DNA; 11)-12) partially purified recombinant zuotin with 20- and 40-fold excess of poly(dG-dC); 13)-14) partially purified recombinant zuotin with 20- and 40-fold excess of poly(dG-Br^5dC); 15)-17) partially purified yeast zuotin with 20-, 40-, and 200-fold excess of salmon sperm DNA; 18) partially purified yeast zuotin with 40-fold excess of poly(dG-dC); 19) partially purified yeast zuotin with 40-fold excess of poly(dG-Br^5dC); and 20) an anti-Z-antibody (as control).
A gel retardation assay was employed to detect proteins with affinity to left-handed Z-DNA. […]

Row | Molecule | binding to B-DNA and conversion to Z-DNA (B-DNA) | membranous structure in PBS [2] | formation of macroscopic membranes [2] | membranous structure in Water [2] | membranous structure in DMEM [2] | other results
1 | KAKAK | able to bind to B-DNA and convert it to the Z conformation |  |  |  |  | 
2 | Ac-HN-AEAKAEAEAKAK-CONH2 (Ac-AEAKAEAEAKAK-NH2) [EAK12] |  | + | able to associate to a much smaller extent and formed small and non-uniform pieces of membranous material | − |  | secondary structure and its stability [1]: denature from a β-sheet structure at high temperatures; Structure ([1]; secondary structure): α, β
3 | H2N-AEAEAKAK-COOH (H-AEAEAKAK-OH) [EAK8] |  | − | did not form membranes | − | − | secondary structure and its stability [1]: random coil structure
4 | H2N-GSNKGAIIGLM-CONH2 (H-GSNKGAIIGLM-NH2) [β-Amyloid (25-35), reference compound] |  | − | None of these peptides produced macroscopic membranes | − | − | 
5 | H2N-RPKQQFGLM-COHN2 (H-RPKQQFGLM-NH2) [Substance p, reference compound] |  | − | None of these peptides produced macroscopic membranes | − | − | 
6 | KAHAK | active in converting B-DNA to Z-DNA only when the histidine was protonated (at low pH) |  |  |  |  | 
7 | KAK | able to bind to B-DNA and convert it to the Z conformation |  |  |  |  | 
8 | H2N-ARARADAD-COOH (H-ARARADAD-OH) [ARD8, 8 amino acid counterpart of RAD16] |  | − | did not form macroscopic membranes | − | − | 
9 | zuotin: 433 amino acid yeast putative Z-DNA binding protein, SEQ ID NO: 2 (protein) MFSLPTLTSDITVEVNSSATKTPFVRRPVEPVGKFFLQHAQRTLRNHTWSEFERIEAEKNVKTVDESNVDPDELLFDTELADEDLLTHDARDWKTADLYAAMGLSKLRFRATESQIIKAHRKQVVKYHPDKQSAAGGSLDQDGFFKIIQKAFETLTDSNKRAQYDSCDFVADVPPPKKGTDYDFYEAWGPVFEAEARFSKKTPIPSLGNKDSSKKEVEQFYAFWHRFDSWRTFEFLDEDVPDDSSNRDHKRYIERKNKAARDKKKTADNARLVKLVERAVSEDPRIKMFKEEEKKEKERRKWEREAGARAEAEAKAKAEAEAKAKAESEAKANASAKADKKKAKEAAKAAKKKNKRAIRNSAKEADYFGDADKATTIDEQVGLIVDSLNDEELVSTADKIKANAAGAKEVLKESAKTIVDSGKLPSSLLSYFV |  |  |  |  |  | excess of poly(dG-Br^5dC) in the Z-form that completely inhibits binding to the probe [3]: 4 fold; competition of binding to poly(dG-m^5dC) by non-Z DNA [3]: cannot be competed by 40-fold excess of poly(dG-dC), 200-fold excess of poly(dA-dT), nor several thousand-fold of salmon sperm DNA; affinity for Z-DNA relative to B-DNA ([3]; listed as yeast zuotin): bound Z-DNA more tightly than the bacterially expressed zuotin; also recorded: several hundred-fold enhanced affinity for Z-DNA relative to B-DNA
10 | bacterially expressed zuotin: zuotin expressed in E. coli with T7 pET system, Phe→Val after Met (protein, UniProt P32527 1-433, looked up, variant F2V) Zuotin: MVSLPTLTSDITVEVNSSATKTPFVRRPVEPVGKFFLQHAQRTLRNHTWSEFERIEAEKNVKTVDESNVDPDELLFDTELADEDLLTHDARDWKTADLYAAMGLSKLRFRATESQIIKAHRKQVVKYHPDKQSAAGGSLDQDGFFKIIQKAFETLTDSNKRAQYDSCDFVADVPPPKKGTDYDFYEAWGPVFEAEARFSKKTPIPSLGNKDSSKKEVEQFYAFWHRFDSWRTFEFLDEDVPDDSSNRDHKRYIERKNKAARDKKKTADNARLVKLVERAVSEDPRIKMFKEEEKKEKERRKWEREAGARAEAEAKAKAEAEAKAKAESEAKANASAKADKKKAKEAAKAAKKKNKRAIRNSAKEADYFGDADKATTIDEQVGLIVDSLNDEELVSTADKIKANAAGAKEVLKESAKTIVDSGKLPSSLLSYFV |  |  |  |  |  | competition of binding to poly(dG-m^5dC) by non-Z DNA [3]: cannot be competed by 40-fold excess of poly(dG-dC), 200-fold excess of poly(dA-dT), nor several thousand-fold of salmon sperm DNA; affinity for Z-DNA relative to B-DNA [3]: binds less tightly
